Among the data in patent US20140037648A1 are IC50 (ng/ml), microneutralization, Neutralization IC50 and Kd values, retold here.

pKd: −log10 of the molar value.

As a reminder, the pKd is −log10 of the Kd, conventionally taken in molar units. Read a low pKd as a high Kd.

For test [1], the target named is F protein of MPV I-PV-03/01-6621 (A1, Pavia IT, 2001; A1/6621/01) (MPV (I-PV-03/01-6621)). Kind of test: cell-based or functional assay.
For test [2], the target named is F protein of RSV 9727/2009 (B, Pavia IT, 2009; B/9727/09) (RSV (9727/2009)). The experiment in a line: cell-based or functional assay.
Test [3] deals with F protein of RSV 9736/2009 (B, Pavia IT, 2009; B/9736/09) (RSV (9736/2009)). Kind of test: cell-based or functional assay.
Test [4] concerns the target F protein of RSV 9847/2009 (B, Pavia IT, 2009; B/9847/09) (RSV (9847/2009)). The experiment in a line: cell-based or functional assay.
In test [5] the target is F protein of RSV A/9835/09 (RSV (A/9835/09)). The experiment in a line: cell-based or functional assay.
Test [6] concerns the target F protein of RSV A/9846/09 (RSV (A/9846/09)). The experiment in a line: cell-based or functional assay.
Test [7] deals with F protein of RSV Randall (A, Chicago US, 1958; A/Randall/58) (RSV (strain Randall)). The experiment in a line: cell-based or functional assay.
Test [8] concerns the target stabilized form of the full-length pre-fusion RSV F protein (RSV). Kind of test: surface plasmon resonance.

For the substance Palivizumab (antibody), the IC50 (ng/ml), microneutralization in test [1] was more than 20000 ng/mL. In addition, the Neutralization IC50 stood at 0.275 µg/mL in test [2]; 0.092 µg/mL in test [3]; 0.209 µg/mL in test [4]; 0.284 µg/mL in test [5]; 0.283 µg/mL in test [6]; 0.44 µg/mL in test [7]. In test [8], the negative logarithm of the Kd (pKd) was 8.70.
